Reference: patent US20230250156A1 (QUADRUCEPT BIO, published 2023)
Read-outs that look alike come from different tables or passages of the source.

Columns and labels:
[1] = molecular target: T1, SARS-CoV-2 RBD protein (SARS-CoV-2, UniProt P0DTC2 319-541)
[2] = molecular target: T1, SARS-CoV-2 RBD protein; remark: listed apart in the source
[3] = molecular target: T1, SARS-CoV-2 RBD protein; experiment: competitive ELISA as for the GB Quads, ACE2 Ig coated
[4] = molecular target: T1, SARS-CoV-2 RBD protein; remark: listed apart in the source
[5] = molecular target: T1, SARS-CoV-2 RBD protein; experiment: indirect binding ELISA, CoV-2 RBD coated

Binder | IC50 [1] [pM] | further results
Q177 (VHH QB-GB-TD) (VHH) VHH: QVQLQESGGGLVQAGGSLRLSCAASGRTFSEYAMGWFRQAPGKEREFVATISWSGGSTYYTDSVKGRFTISRDNAKNTVYLQMNSLKPDDTAVYYCAAAGLGTVVSEWDYDYDYWGQGTQVTVSS | 64.9 | –
Q178 (VHH QB-GB IgG, non-Quad format) (VHH) VHH: QVQLQESGGGLVQAGGSLRLSCAASGRTFSEYAMGWFRQAPGKEREFVATISWSGGSTYYTDSVKGRFTISRDNAKNTVYLQMNSLKPDDTAVYYCAAAGLGTVVSEWDYDYDYWGQGTQVTVSS | 185 | –
Q179 (VHH QB-GB Ig-TD) (VHH) VHH: QVQLQESGGGLVQAGGSLRLSCAASGRTFSEYAMGWFRQAPGKEREFVATISWSGGSTYYTDSVKGRFTISRDNAKNTVYLQMNSLKPDDTAVYYCAAAGLGTVVSEWDYDYDYWGQGTQVTVSS | 32.8 | –
Q185 (VHH QB-GB dimeric TD) (VHH) VHH: QVQLQESGGGLVQAGGSLRLSCAASGRTFSEYAMGWFRQAPGKEREFVATISWSGGSTYYTDSVKGRFTISRDNAKNTVYLQMNSLKPDDTAVYYCAAAGLGTVVSEWDYDYDYWGQGTQVTVSS | 23.7 | IC50 [2]: 14.7 pM
QB-FE mIg-TD Quad (VHH, as m58) VHH: QVQLVESGGGSVQAGGSLRLSCAASGTIAHIKYLGWFRQAPGKEREGVAALMTKWGQTYYADSVKGRFTVSLDNAKNTVYLQMNSLKPEDTALYYCAAASYGANFPLKASDYSYWGQGTQVTVSS | – | IC50 [3]: 80 pM
Q185B (tandem GB VHH-hinge-TD) (VHH) QVQLQESGGGLVQAGGSLRLSCAASGRTFSEYAMGWFRQAPGKEREFVATISWSGGSTYYTDSVKGRFTISRDNAKNTVYLQMNSLKPDDTAVYYCAAAGLGTVVSEWDYDYDYWGQGTQVTVSSGGSGGSQVQLQESGGGLVQAGGSLRLSCAASGRTFSEYAMGWFRQAPGKEREFVATISWSGGSTYYTDSVKGRFTISRDNAKNTVYLQMNSLKPDDTAVYYCAAAGLGTVVSEWDYDYDYWGQGTQVTVSSGGGGSGGGGSEPKSCDKTHTCPPCPAPELLGGKKKPLDGEYFTLQIRGRERFEMFRELNEALELKDAQAGKEPG | – | IC50 [4]: 0.03 pM
QB-FE VHH (monovalent) (VHH) VHH: QVQLVESGGGSVQAGGSLRLSCAASGTIAHIKYLGWFRQAPGKEREGVAALMTKWGQTYYADSVKGRFTVSLDNAKNTVYLQMNSLKPEDTALYYCAAASYGANFPLKASDYSYWGQGTQVTVS | – | binding result [5]: no binding (tested: 100 nM)
Q180/Q182 (VHH QB-GB Fab-like Ig, non-Quad format) (VHH) heavy: not shown light: QVQLQESGGGLVQAGGSLRLSCAASGRTFSEYAMGWFRQAPGKEREFVATISWSGGSTYYTDSVKGRFTISRDNAKNTVYLQMNSLKPDDTAVYYCAAAGLGTVVSEWDYDYDYWGQGTQVTVSSGGGGSGGGGSKRTVAAPSVFIFPPSDEQLKSGTASVVCLLNNFYPREAKVQWKVDNALQSGNSQESVTEQDSKDSTYSLSSTLTLSKADYEKHKVYACEVTHQGLSSPVTKSFNRGEC | 77.8 | –
Q186/Q182 (VHH QB-GB Fab'-like TD, octavalent GB Quad) (VHH) heavy: QVQLQESGGGLVQAGGSLRLSCAASGRTFSEYAMGWFRQAPGKEREFVATISWSGGSTYYTDSVKGRFTISRDNAKNTVYLQMNSLKPDDTAVYYCAAAGLGTVVSEWDYDYDYWGQGTQVTVSSGGGGSGGGGSASTKGPSVFPLAPSSKSTSGGTAALGCLVKDYFPEPVTVSWNSGALTSGVHTFPAVLQSSGLYSLSSVVTVPSSSLGTQTYICNVNHKPSNTKVDKKVEPKSCDKTHTCPPCPAPELLGGKKKPLDGEYFTLQIRGRERFEMFRELNEALELKDAQAGKEPG light: QVQLQESGGGLVQAGGSLRLSCAASGRTFSEYAMGWFRQAPGKEREFVATISWSGGSTYYTDSVKGRFTISRDNAKNTVYLQMNSLKPDDTAVYYCAAAGLGTVVSEWDYDYDYWGQGTQVTVSSGGGGSGGGGSKRTVAAPSVFIFPPSDEQLKSGTASVVCLLNNFYPREAKVQWKVDNALQSGNSQESVTEQDSKDSTYSLSSTLTLSKADYEKHKVYACEVTHQGLSSPVTKSFNRGEC | 14.8 | IC50 [2]: 8.3 pM
Q181/Q182 (VHH QB-GB Fab-like Ig-TD) (VHH) heavy: not shown light: QVQLQESGGGLVQAGGSLRLSCAASGRTFSEYAMGWFRQAPGKEREFVATISWSGGSTYYTDSVKGRFTISRDNAKNTVYLQMNSLKPDDTAVYYCAAAGLGTVVSEWDYDYDYWGQGTQVTVSSGGGGSGGGGSKRTVAAPSVFIFPPSDEQLKSGTASVVCLLNNFYPREAKVQWKVDNALQSGNSQESVTEQDSKDSTYSLSSTLTLSKADYEKHKVYACEVTHQGLSSPVTKSFNRGEC | 15.4 | –
Q183/Q182 (VHH QB-GB Fab-like TD) (VHH) heavy: QVQLQESGGGLVQAGGSLRLSCAASGRTFSEYAMGWFRQAPGKEREFVATISWSGGSTYYTDSVKGRFTISRDNAKNTVYLQMNSLKPDDTAVYYCAAAGLGTVVSEWDYDYDYWGQGTQVTVSSGGGGSGGGGSASTKGPSVFPLAPSSKSTSGGTAALGCLVKDYFPEPVTVSWNSGALTSGVHTFPAVLQSSGLYSLSSVVTVPSSSLGTQTYICNVNHKPSNTKVDKKVEPKSCDKTHTKKKPLDGEYFTLQIRGRERFEMFRELNEALELKDAQAGKEPG light: QVQLQESGGGLVQAGGSLRLSCAASGRTFSEYAMGWFRQAPGKEREFVATISWSGGSTYYTDSVKGRFTISRDNAKNTVYLQMNSLKPDDTAVYYCAAAGLGTVVSEWDYDYDYWGQGTQVTVSSGGGGSGGGGSKRTVAAPSVFIFPPSDEQLKSGTASVVCLLNNFYPREAKVQWKVDNALQSGNSQESVTEQDSKDSTYSLSSTLTLSKADYEKHKVYACEVTHQGLSSPVTKSFNRGEC | 31.2 | –
Q184/Q182 (VHH QB-GB Fab-like mIg-TD) (VHH) heavy: QVQLQESGGGLVQAGGSLRLSCAASGRTFSEYAMGWFRQAPGKEREFVATISWSGGSTYYTDSVKGRFTISRDNAKNTVYLQMNSLKPDDTAVYYCAAAGLGTVVSEWDYDYDYWGQGTQVTVSSGGGGSGGGGSASTKGPSVFPLAPSSKSTSGGTAALGCLVKDYFPEPVTVSWNSGALTSGVHTFPAVLQSSGLYSLSSVVTVPSSSLGTQTYICNVNHKPSNTKVDKKVEPKSCDKTHTAPELLGGPSVFLFPPKPKDTLMISRTPEVTCVVVDVSHEDPEVKFNWYVDGVEVHNAKTKPREEQYNSTYRVVSVLTVLHQDWLNGKEYKCKVSNKALPAPIEKTISKAKGQPREPQVYTLPPSRDELTKNQVSLTCLVKGFYPSDIAVEWESNGQPENNYKTTPPVLDSDGSFFLYSKLTVDKSRWQQGNVFSCSVMHEALHNHYTQKSLSLSPGKKKKPLDGEYFTLQIRGRERFEMFRELNEALELKDAQAGKEPG light: QVQLQESGGGLVQAGGSLRLSCAASGRTFSEYAMGWFRQAPGKEREFVATISWSGGSTYYTDSVKGRFTISRDNAKNTVYLQMNSLKPDDTAVYYCAAAGLGTVVSEWDYDYDYWGQGTQVTVSSGGGGSGGGGSKRTVAAPSVFIFPPSDEQLKSGTASVVCLLNNFYPREAKVQWKVDNALQSGNSQESVTEQDSKDSTYSLSSTLTLSKADYEKHKVYACEVTHQGLSSPVTKSFNRGEC | 34.2 | –
